Test results taken from article PMC9463536 (The Journal of Biological Chemistry, 2022).

Tests used:
[1] = molecular target: T1, human claudin-4, untagged (human, UniProt O14493); test: SEC; conditions: both partners purified
T1 construct: also called hCLDN-4

[2] = molecular target: T2, cCpE-His10 (wild type) (Clostridium perfringens, UniProt P01558); test: BLI; conditions: both partners purified
T2 construct: not shown: His10, C-terminal, kept

T1 sequence (O14493 whole entry): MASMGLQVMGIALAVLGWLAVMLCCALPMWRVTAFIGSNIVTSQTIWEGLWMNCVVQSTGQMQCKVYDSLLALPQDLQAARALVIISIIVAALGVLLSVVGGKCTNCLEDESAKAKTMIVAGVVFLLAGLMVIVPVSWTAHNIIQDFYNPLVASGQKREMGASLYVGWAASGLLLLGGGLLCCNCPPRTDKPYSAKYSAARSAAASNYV

B1: COP-2 (CpE Obstructing Protein 2), synthetic antigen-binding fragment (Fab, V domains shown)
VH: EVQLVESGGGLVQPGGSLRLSCAASGFNFSSSSIHWVRQAPGKGLEWVASISSYSGYTSYADSVKGRFTISADTSKNTAYLQMNSLRAEDTAVYYCARYWSWYNSSHYIYSALDYWGQGTLVTVSS
VL: DIQMTQSPSSLSASVGDRVTITCRASQSVSSAVAWYQQKPGKAPKLLIYSASSLYSGVPSRFSGSRSGTDFTLTISSLQPEDFATYYCQQSYEWAPVTFGQGTKVEIK
notes: also called sFab; source: E. coli BL21-Gold, purified (MabSelect SuRe, Resource S)
Q: Does B1 bind [1]?
A: no binding

Q: What about the Kd [2] of the same binder?
A: 67.6 ± 11.7 nM

Q: And the koff [2]?
A: 0.00048 s⁻¹

Q: What about the kon [2] of the same binder?
A: 7200 M⁻¹ s⁻¹

B2: COP-3 (CpE Obstructing Protein 3), synthetic antigen-binding fragment (Fab, V domains shown)
VH: EVQLVESGGGLVQPGGSLRLSCAASGFNFYSSSIHWVRQAPGKGLEWVAYISSYSGYTYYADSVKGRFTISADTSKNTAYLQMNSLRAEDTAVYYCARGYGYFDYNFSVGYALDYWGQGTLVTVSS
VL: DIQMTQSPSSLSASVGDRVTITCRASQSVSSAVAWYQQKPGKAPKLLIYSASSLYSGVPSRFSGSRSGTDFTLTISSLQPEDFATYYCQQSHPWYYPITFGQGTKVEIK
notes: as for B1
Q: Does B2 bind [1]?
A: no binding

Q: What about the Kd [2] of the same binder?
A: 138 ± 6.2 nM

Q: And the koff [2]?
A: 0.001 s⁻¹

Q: And the kon [2]?
A: 10000 M⁻¹ s⁻¹
